Results reported in US20090214627.

T1: Peptide 2: Arg-Thr-Glu-Ser-Ile-Thr-Ala-Thr-Ser-Pro-Ala-Ser-Met-Val-Gly-Gly-Lys-Pro (second IRS-1 peptide)
T1 chain: RTESITATSPASMVGGKP

T2: Peptide 1: Lys-Lys-His-Ala-Asp-Asp-Gly-Ala-Met-Pro-Met-Ser-Pro-Gly-Val-Ala (mutant IRS-1 peptide)
T2 chain: KKHADDGAMPMSPGVA


Tests used:
[1] = test system: insulin receptor substrate-1 (IRS-1) peptide Y^608
[2] = target: insulin receptor substrate-1 (IRS-1) peptide Y^608; remark: listed apart in the source
[3] = target: T1, Peptide 2: …
[4] = target: T2, Peptide 1: …

Molecule | IRS phosphorylation by BVR (32P kinase assay) [1] | IRS-1 phosphorylation by BVR (32P kinase assay) [2] | peptide phosphorylation by BVR (32P retained on P81 filters) [2] | phosphorylation of BVR by IRK in the presence of increasing molar ratio of IRS/BVR [2] | peptide phosphorylation by BVR (32P retained on P81 filters) [3] | peptide phosphorylation by BVR (32P retained on P81 filters) [4]
GST-hBVR G17 mutant (GVGRA to GVARA), ATP binding domain mutant | G^17 mutation, for the most part, prevented IRS phosphorylation by BVR | – | – | – | – | –
GST-hBVR fusion protein, wild type (human biliverdin reductase fused to glutathione-S-transferase) (protein) MNAEPERKFGVVVVGVGRAGSVRMRDLRNPHPSSAFLNLIGFVSRRELGSIDGVQQISLEDALSSQEVEVAYICSESSSHEDYIRQFLNAGKHVLVEYPMTLSLAAAQELWELAEQKGKVLHEEHVELLMEEFAFLKKEVVGKDLLKGSLLFTSDPLEEDRFGFPAFSGISRLTWLVSLFGELSLVSATLEERKEDQYMKMTVCLETEKKSPLSWIEEKGPGLKRNRYLSFHFKSGSLENVPNVGVNKNIFLKDQNIFVQKLLGQFSEKELAAEKKRILHCLGLAEEIQKYCCSRK | – | IRS-1 is a substrate for BVR | both the mutated and unmutated peptides were phosphorylated to about the same extent (1049±78 cpm and 1081±183 cpm respectively) | in the presence of increasing amounts of IRS, there was an increase in phosphorylation of BVR by IR up to equimolar ratio of IRS/BVR | this peptide is also a suitable substrate for BVR (1198±230 cpm) | both the mutated and unmutated peptides were phosphorylated to about the same extent (1049±78 cpm and 1081±183 cpm respectively)
